{"source": "patent US12297272B2", "about": "“IgG Fc variants for veterinary use” (Elanco US Inc., priority 2017, dated 2025); as to C1q binding: key: (−) denotes low or no measurable binding activity", "molecules": {"B1": {"name": "fusion protein comprising variant canine IgG-B Fc K(93)R: fusion protein comprising variant canine IgG-B Fc K(93)R (SEQ ID NO: 78); fusion partner not stated (protein)", "chain": "PAPEMLGGPSVFIFPPKPKDTLLIARTPEVTCVVVDLDPEDPEVQISWFVDGKQMQTAKTQPREEQFNGTYRVVSVLPIGHQDWLKGKQFTCRVNNKALPSPIERTISKARGQAHQPSVYVLPPSREELSKNTVSLTCLIKDFFPPDIDVEWQSNGQQEPESKYRTTPPQLDEDGSYFLYSKLSVDKSRWQRGDTFICAVMHEALHNHYTQESLSHSPGK", "modifications": "left off: a dimerising Fc or GST"}, "B2": {"name": "GLP1-G8_I_VARfeIgG2: Formula I GLP1-G8 contiguous polypeptide comprising variant feline IgG2 Fc of SEQ ID NO: 17 (Gly to Cys at position 14) (protein)", "chain": "HGEGTFTSDVSSYLEGQAAKEFIAWLVKGGGGSGGGGSGGGGSGGGGSPKTASTIESKTGECPKCPVPEIPGAPSVFIFPPKPKDTLSISRTPEVTCLVVDLGPDDSNVQITWFVDNTEMHTAKTRPREEQFNSTYRVVSVLPILHQDWLKGKEFKCKVNSKSLPSAMERTISKAKGQPHEPQVYVLPPTQEELSENKVSVTCLIKGFHPPDIAVEWEITGQPEPENNYQTTPPQLDSDGTYFLYSRLSVDRSHWQRGNTYTCSVSHEALHSHHTQKSLTQSPGK", "modifications": "Synthetic GLP1-G8_I_VARfeIgG2"}, "B3": {"name": "canine IgG-C Fc: wild-type canine IgG-C Fc polypeptide (protein)", "chain": "PGCGLLGGPSVFIFPPKPKDILVTARTPTVTCVVVDLDPENPEVQISWFVDSKQVQTANTQPREEQSNGTYRVVSVLPIGHQDWLSGKQFKCKVNNKALPSPIEEIISKTPGQAHQPNVYVLPPSRDEMSKNTVTLTCLVKDFFPPEIDVEWQSNGQQEPESKYRMTPPQLDEDGSYFLYSKLSVDKSRWQRGDTFICAVMHEALHNHYTQISLSHSPGK", "modifications": "Wild-type canine IgG-C Fc , Protein A - , C1q +, CD16 +", "notes": "wild-type canine IgG-C Fc polypeptide"}, "B4": {"name": "canine IgG-D Fc: wild-type canine IgG-D Fc polypeptide (protein)", "chain": "PVPESLGGPSVFIFPPKPKDILRITRTPEITCVVLDLGREDPEVQISWFVDGKEVHTAKTQPREQQFNSTYRVVSVLPIEHQDWLTGKEFKCRVNHIGLPSPIERTISKARGQAHQPSVYVLPPSPKELSSSDTVTLTCLIKDFFPPEIDVEWQSNGQPEPESKYHTTAPQLDEDGSYFLYSKLSVDKSRWQQGDTFTCAVMHEALQNHYTDLSLSHSPGK", "modifications": "Wild-type canine IgG-D Fc , Protein A -, C1q -, CD16", "notes": "wild-type canine IgG-D Fc polypeptide"}, "B5": {"name": "canine IgG-A Fc: wild-type canine IgG-A Fc polypeptide (protein)", "chain": "PVPEPLGGPSVLIFPPKPKDILRITRTPEVTCVVLDLGREDPEVQISWFVDGKEVHTAKTQSREQQFNGTYRVVSVLPIEHQDWLTGKEFKCRVNHIDLPSPIERTISKARGRAHKPSVYVLPPSPKELSSSDTVSITCLIKDFYPPDIDVEWQSNGQQEPERKHRMTPPQLDEDGSYFLYSKLSVDKSRWQQGDPFTCAVMHETLQNHYTDLSLSHSPGK", "modifications": "Wild-type canine IgG-A Fc , Protein A -, C1q -, CD16", "notes": "wild-type canine IgG-A Fc polypeptide"}}, "key": {"[1]": {"conditions": "cited from earlier work"}, "[2]": {"target": "T1, C1q (Homo sapiens, UniProt P02745+P02746+P02747)", "T1 sequence (P02745 23-245)": "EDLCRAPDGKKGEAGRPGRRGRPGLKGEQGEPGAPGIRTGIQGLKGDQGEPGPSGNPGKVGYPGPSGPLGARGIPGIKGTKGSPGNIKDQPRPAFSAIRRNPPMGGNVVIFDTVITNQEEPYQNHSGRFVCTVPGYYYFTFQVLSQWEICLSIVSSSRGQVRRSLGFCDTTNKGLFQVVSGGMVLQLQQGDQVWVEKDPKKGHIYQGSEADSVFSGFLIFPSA", "T1 sequence (P02746 28-253)": "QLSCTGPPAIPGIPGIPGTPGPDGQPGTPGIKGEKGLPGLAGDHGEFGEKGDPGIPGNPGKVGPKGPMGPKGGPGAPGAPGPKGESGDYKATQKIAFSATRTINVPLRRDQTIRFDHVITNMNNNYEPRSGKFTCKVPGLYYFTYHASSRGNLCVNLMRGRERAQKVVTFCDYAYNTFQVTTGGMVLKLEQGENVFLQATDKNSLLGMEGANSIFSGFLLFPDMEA", "T1 sequence (P02747 29-245)": "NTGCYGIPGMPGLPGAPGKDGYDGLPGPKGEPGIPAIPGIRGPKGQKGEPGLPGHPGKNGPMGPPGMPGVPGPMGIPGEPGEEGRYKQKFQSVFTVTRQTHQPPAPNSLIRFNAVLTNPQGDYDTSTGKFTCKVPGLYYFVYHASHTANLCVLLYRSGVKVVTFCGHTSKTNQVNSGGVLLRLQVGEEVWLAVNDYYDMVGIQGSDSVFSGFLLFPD", "experiment": "Binding between human C1q and canine IgG-B Fc fusion protein", "conditions": "compared to a fusion protein comprising wild-type canine IgG-B Fc", "from_the_text": "(§1) Binding analysis may be performed using an Octet biosensor."}, "[3]": {"target": "T2, GLP1R (Homo sapiens, UniProt P43220)", "T2 construct": "host or cells: CHO-K1 (hamster ovarian cell line), CHOK-1-GL1R", "T2 sequence (P43220 24-463)": "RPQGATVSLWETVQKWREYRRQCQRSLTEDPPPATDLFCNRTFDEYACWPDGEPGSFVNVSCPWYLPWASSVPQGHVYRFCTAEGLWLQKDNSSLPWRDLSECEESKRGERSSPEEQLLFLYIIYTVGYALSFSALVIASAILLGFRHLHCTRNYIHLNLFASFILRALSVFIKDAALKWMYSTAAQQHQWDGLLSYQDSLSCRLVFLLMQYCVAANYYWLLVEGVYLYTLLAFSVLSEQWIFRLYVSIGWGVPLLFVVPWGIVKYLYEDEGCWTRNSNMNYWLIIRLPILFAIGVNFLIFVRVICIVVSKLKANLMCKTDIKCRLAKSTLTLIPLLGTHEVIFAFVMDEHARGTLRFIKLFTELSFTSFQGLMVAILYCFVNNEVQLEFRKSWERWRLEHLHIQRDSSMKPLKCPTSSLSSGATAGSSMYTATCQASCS", "experiment": "Long-term storage stability, CHOK-1-GL1R cells with cAMP-Glo Max Assay", "format": "cell-based", "conditions": "stored in PBS, pH7.2, 1.3 mg/mL, 2-8° C. for one year", "description": "GLP1-G8_I_VARfeIgG2 (SEQ ID NO: 26) was stored in PBS, pH7.2 at a concentration of 1.3 mg/mL, placed in 1.5 mL Eppendorf tube, and stored at 2-8° C. for one year (Lot 2-29-2016). GLP1-G8_I_VARfeIgG2 (SEQ ID NO: 26) was also stored in PBS, pH7.2 at a concentration of 10 mg/mL, placed in 1.5 mL Eppendorf tube, and stored at 2-8° C. for one day (Lot 2-2-2017).\nCHOK-1-GL1R cells were plated in a 96-well plate (Corning, Cat #3610) at a density of 20,000 cells per well in F-12K Medium (ATCC, Cat #ATCC® 30-2004) supplemented with 10% Fetal Bovine Serum, heat inactivated (Sigma, Cat #2868) and incubated at 37° C., 5% CO2 for 24 hours. […] (Sigma Aldrich, Cat. #B8279) to a final concentration 100 μL.\nThe cells were incubated at room temperature for 30 minutes. In this process, upon GLP1 binding to the Gs-coupled GLP1R receptor, Gs stimulates adenylate cyclase to generate cAMP. […]\nMono-oxygenation of luciferin was catalyzed by luciferase in the presence of Mg^2+ and ATP that presented in the cell lysate, resulting in a luminescent signal proportional to the amount of ATP in the cells. At the end of 10 min incubation, the plate was read on a Synergy HT microplate reader (Biotek, Winooski, VT). Luminescence is proportional to ATP levels but inversely proportional to cAMP levels. Thus, as cAMP concentration increases, luminescence decreases."}, "[4]": {"conditions": "in vivo, sc, 2 mg/kg", "protocol": "(§3) The plate was sealed and incubated overnight at 4° C. […] After removing the blocking buffer, serial dilutions of reference standard and samples in blocking buffer were added (100 μl/well) and the plate was incubated for 2 hours at room temperature. […] TMB substrate (ScyTek, Catalog No. TM1999) was added (100 μl/well) and allowed to incubate at room temperature for 1 minute. The reaction was stopped by the addition of 2M H2SO4 (50 μl/well)."}, "[5]": {"experiment": "In vivo pharmacokinetics in cats, serum concentration by quantitative ELISA", "conditions": "single dose 2 mg/kg subcutaneous, 5 cats", "protocol": "as §3"}, "[6]": {"format": "in vitro ADME, feline", "conditions": "pH 7.2", "description": "(§2) GLP1-G8_I_VARfeIgG2 (SEQ ID NO: 26) was stored in PBS, pH7.2 with feline serum at 37° C. for 24 hours to test in vitro serum stability."}, "[7]": {"conditions": "in vivo, sc, 2 mg/kg", "remark": "listed apart in the source"}, "[8]": {"format": "in vitro ADME, feline", "description": "(lane 1), in PBS for 24 hours at 37° C. (lane 2), in PBS for 24 hours at 4° C. (lane 9). A mouse anti-GLP1 antibody was used.\nas §2"}, "[9]": {"experiment": "Differential scanning fluorimetry, stability at various pH", "format": "physicochemical", "conditions": "n = 3, 10 μg construct", "from_the_text": "Furthermore, differential scanning fluorimetry was used to assess the stability of the contiguous polypeptides at various pH, as reflected by mean melting point temperature (n=3) (Table 9, below). The increased stability of the variant feline IgG2 hinge is most evident at pH 6."}, "[10]": {"experiment": "In vivo pharmacokinetics in cats, serum concentration by cell-based activity assay", "conditions": "single dose 2 mg/kg subcutaneous, 5 cats, 0 to 168 hours"}, "[11]": {"target": "T1, C1q", "experiment": "C1q binding of IgG Fc polypeptides (Octet biolayer interferometry described)", "conditions": "for C1q Binding: Wild-type Canine IgG Fc", "from_the_text": "as §1"}, "[12]": {"target": "CD16 (Homo sapiens, UniProt P08637)", "sequence (P08637 17-254)": "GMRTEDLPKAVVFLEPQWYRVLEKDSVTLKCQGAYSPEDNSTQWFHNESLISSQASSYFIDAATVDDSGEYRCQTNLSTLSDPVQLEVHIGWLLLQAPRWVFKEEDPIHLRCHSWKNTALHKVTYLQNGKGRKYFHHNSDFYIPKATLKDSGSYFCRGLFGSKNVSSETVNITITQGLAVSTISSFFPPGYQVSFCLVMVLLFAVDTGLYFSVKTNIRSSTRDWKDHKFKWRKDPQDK", "experiment": "CD16 binding of IgG Fc polypeptides (Octet biolayer interferometry described)", "conditions": "for CD16 Binding: Wild-type Canine IgG Fc", "from_the_text": "as §1"}, "[13]": {"target": "Protein A (Staphylococcus aureus, UniProt P38507)", "conditions": "for Protein A Binding: Wild-type Canine IgG Fc", "description": "In some embodiments, the KD of an IgG Fc polypeptide, such as a variant IgG Fc polypeptide, to Protein A or to C1q or to CD16 is measured by using biolayer interferometry assays using a biosensor, such as an Octet® System (Pall ForteBio LLC, Fremont, CA) according to the supplier's instructions. In brief, biotinylated Protein A or C1q or CD16 is bound to the sensor tip and the association of IgG Fc polypeptide is monitored for a specified time or until steady state is reached. Dissociation may be monitored for a specified time or until steady state is reached. A buffer only blank curve is subtracted to correct for any drift. The data are fit to a 2:1 binding model using ForteBio data analysis software to determine association rate constant (kon), dissociation rate constant (koff), and the Kd. The equilibrium dissociation constant (KD) is calculated as the ratio of koff/kon. The term “kon” refers to the rate constant for association of a molecule X to its partner Y and the term “koff” refers to the rate constant for dissociation of a molecule X or partner Y from the molecule X/partner Y complex.\nBinding analysis may be performed using an Octet biosensor. Briefly, the target molecule (e.g., Protein A, C1q, CD16, etc.) may be biotinylated and free unreacted biotin removed (e.g., by dialysis). The biotinylated target molecule is captured on streptavidin sensor tips. Association of the target molecule with various concentrations (e.g., 10 μg/mL) of IgG Fc polypeptide is monitored for a specified time or until steady state is reached. Dissociation is monitored for a specified time or until steady state is reached. A buffer only blank curve may be subtracted to correct for any drift. The data are fit to a 1:1 binding model using ForteBio™ data analysis software to determine the kon, koff, and the Kd."}}}
{"molecule": "Native GLP1: Glucagon-like peptide-1 (GLP1), a potent antihyperglycemic hormone", "values": [{"measurement": "in vivo half-life", "setting": "[1]", "value": "approximately 2 minutes"}]}
{"molecule": "B1", "values": [{"measurement": "binding to human C1q", "setting": "[2]", "value": "Reduced binding"}]}
{"molecule": "B2", "values": [{"measurement": "cellular activity after storage", "setting": "[3]", "value": "maintained cellular activity"}, {"measurement": "mean serum half-life (t1/2)", "setting": "[4]", "value": 39, "unit": "h"}, {"measurement": "average Cmax", "setting": "[5]", "value": 12000, "unit": "ng/mL"}, {"measurement": "average Tmax", "setting": "[5]", "value": 22, "unit": "h"}, {"measurement": "mean area under the curve (AUC)", "setting": "[5]", "value": "about 950 m(h)/mL"}, {"measurement": "activity after serum incubation", "setting": "[6]", "value": "activity was maintained"}, {"measurement": "mean t1/2", "setting": "[7]", "value": 36, "unit": "h"}, {"measurement": "degradation by Western blot", "setting": "[8]", "value": "no visible degradations were observed"}, {"measurement": "Mean Melting Point Temperature (Tm)", "setting": "[9]; pH 5", "value": 53.1, "unit": "°C"}, {"measurement": "Mean Melting Point Temperature (Tm)", "setting": "[9]; pH 6", "value": 59.7, "unit": "°C"}, {"measurement": "Mean Melting Point Temperature (Tm)", "setting": "[9]; pH 7", "value": 59.9, "unit": "°C"}, {"measurement": "Mean Melting Point Temperature (Tm)", "setting": "[9]; pH 8", "value": 58.2, "unit": "°C"}, {"measurement": "mean AUC", "setting": "[10]", "value": "about 840 μg(h)/mL"}]}
{"molecule": "B3", "values": [{"measurement": "binding affinity to C1q", "setting": "[11]", "value": "bind to C1q"}, {"measurement": "CD16 binding activity", "setting": "[12]", "value": "have CD16 binding activity"}, {"measurement": "Protein A binding affinity", "setting": "[13]", "value": "weak or no measurable Protein A binding affinity"}, {"measurement": "Protein A Binding", "setting": "[13]", "value": "−"}]}
{"molecule": "B4", "values": [{"measurement": "binding affinity to C1q", "setting": "[11]", "value": "weak or no measurable binding affinity to C1q"}, {"measurement": "C1q Binding", "setting": "[11]", "value": "−"}, {"measurement": "CD16 Binding", "setting": "[12]", "value": "−"}, {"measurement": "Protein A binding affinity", "setting": "[13]", "value": "weak or no measurable Protein A binding affinity"}, {"measurement": "Protein A Binding", "setting": "[13]", "value": "−"}]}
{"molecule": "B5", "values": [{"measurement": "binding affinity to C1q", "setting": "[11]", "value": "weak or no measurable binding affinity to C1q"}, {"measurement": "C1q Binding", "setting": "[11]", "value": "−"}, {"measurement": "CD16 Binding", "setting": "[12]", "value": "−"}, {"measurement": "Protein A binding affinity", "setting": "[13]", "value": "weak or no measurable Protein A binding affinity"}, {"measurement": "Protein A Binding", "setting": "[13]", "value": "−"}]}
